Key:
[1] = molecular target: IGF-II receptor (Long Evans rat liver) (rat); assay: saturation binding of [125I] IGF-II to pooled rat liver homogenate, filter plates; ethanol diet, PPAR-δ agonist treated rats
[2] = molecular target: IGF-II receptor (Long Evans rat liver) (rat); assay: saturation binding of [125I] IGF-II to pooled rat liver homogenate, filter plates; ethanol diet, PPAR-γ agonist treated rats
[3] = molecular target: IGF-II receptor (Long Evans rat liver) (rat); assay: saturation binding of [125I] IGF-II to pooled rat liver homogenate, filter plates; control diet, PPAR-γ agonist treated rats
[4] = molecular target: IGF-II receptor (Long Evans rat liver) (rat); assay: saturation binding of [125I] IGF-II to pooled rat liver homogenate, filter plates; ethanol diet, vehicle
[5] = molecular target: IGF-II receptor (Long Evans rat liver) (rat); assay: saturation binding of [125I] IGF-II to pooled rat liver homogenate, filter plates; control diet, PPAR-δ agonist treated rats
[6] = molecular target: IGF-II receptor (Long Evans rat liver) (rat); assay: saturation binding of [125I] IGF-II to pooled rat liver homogenate, filter plates; control diet, vehicle
[7] = molecular target: IGF-II receptor (Long Evans rat liver) (rat); assay: saturation binding of [125I] IGF-II to pooled rat liver homogenate, filter plates; ethanol diet, PPAR-α agonist treated rats
[8] = molecular target: IGF-II receptor (Long Evans rat liver) (rat); assay: saturation binding of [125I] IGF-II to pooled rat liver homogenate, filter plates; control diet, PPAR-α agonist treated rats

Chain of Human recombinant [125I] IGF-II (P01344 25-91): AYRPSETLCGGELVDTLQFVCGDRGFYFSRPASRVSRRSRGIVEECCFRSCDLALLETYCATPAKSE

Human recombinant [125I] IGF-II (from UniProt P01344 25-91) (ligand)
BMAX [1]: 51.5 | BMAX [2]: 22.6 | BMAX [3]: 25.2 | BMAX [4]: 22.6 | BMAX [5]: 29 | BMAX [6]: 40.1 | BMAX [7]: 28.9 | BMAX [8]: 40.3

Reference: patent US20100021386A1
